In this data set the test system is Campylobacter jejuni DSM 4688. As to the kind of experiment: Detection of hippuricase activity with 4-HHA, 4-aminoantipyrine and oxidizing reagent (color / absorbance at 505 nm). It is filed as cell-based. As to conditions: FIG. 7B; varied 0 to 4 U/mL; 10 mM 4-HHA; 0.5 mM 4-AAP, 4.5 U/mL HRP, 10 mM glucose. As for the experimental part: Campylobacter jejuni DSM 4688 (C. j., catalase positive), Eschericha coli (E. coli, catalase positive) and Campylobacter coli DSM 4689 (C. c., catalase positive), Streptococcus agalactiae ATCC®12386 (S. a., catalase negative) and Streptococcus pyogenes ATCC®19615 (S. p., catalase negative) were cultivated on Columbia Agar with sheep blood (Thermofischer PB5039A) at 37° C. for 48 h, both Campylobacter strains were cultivated under microaerophilic atmosphere (Oxoid, Campylgen CN0025A).
Biomass of colonies were suspended in sterile phosphate buffer (100 mM, pH 7.4) and the optical density OD was determined and set to OD600 of 0.9.
Two hundred μL of cell suspensions were mixed with 25 μL of 4-hydroxyhippuric acid (4-HHA, Bachem, 4005059) stock solution, prepared in 100 mM phosphate buffer pH adjusted to 7.4 in a microtiter plate (SpektraMax M5, Molecular Devices) and incubated for 70 minutes at 37° C. […] The absorbance at 505 nm was recorded with a plate reader at room temperature. […]
Two hundred μL of cell suspensions were mixed with 25 μL of 100 mM 4-hydroxyhippuric acid (4-HHA, Bachem 4005059) prepared in 100 mM phosphate buffer pH adjusted to 7.4) in a microtiter plate and incubated for 1 h at 37° C. […] The absorbance at 505 nm was recorded with a plate reader (SpektraMax M5, Molecular Devices) at room temperature. […]

B1: GOD: glucose oxidase (GOD, Merck G2133), hydrogen peroxide-generating enzyme (protein, UniProt P13006 17-605, looked up)
Glucose oxidase: LPHYIRSNGIEASLLTDPKDVSGRTVDYIIAGGGLTGLTTAARLTENPNISVLVIESGSYESDRGPIIEDLNAYGDIFGSSVDHAYETVELATNNQTALIRSGNGLGGSTLVNGGTWTRPHKAQVDSWETVFGNEGWNWDNVAAYSLQAERARAPNAKQIAAGHYFNASCHGVNGTVHAGPRDTGDDYSPIVKALMSAVEDRGVPTKKDFGCGDPHGVSMFPNTLHEDQVRSDAAREWLLPNYQRPNLQVLTGQYVGKVLLSQNGTTPRAVGVEFGTHKGNTHNVYAKHEVLLAAGSAVSPTILEYSGIGMKSILEPLGIDTVVDLPVGLNLQDQTTATVRSRITSAGAGQGQAAWFATFNETFGDYSEKAHELLNTKLEQWAEEAVARGGFHNTTALLIQYENYRDWIVNHNVAYSELFLDTAGVASFDVWDLLPFTRGYVHILDKDPYLHHFAYDPQYFLNELDLLGQAAATQLARNISNSGAMQTYFAGETIPGDNLAYDADLSAWTEYIPYHFRPNYHGVGTCSMMPKEMGGVVDNAARVYGVQGLRVIDGSIPPTQMSSHVMTVFYAMALKISDAILEDYASMQ
Consider B1, for which the “GOD enzyme activity sufficient for the reaction” value is on record as 1 U/mL.

For the origin of these results see patent US20250236901A1, “METHOD OF DETECTING A MICROORGANISM HAVING HIPPURICASE ACTIVITY” (BIOSYNTH AG, priority 2022, published 2025).
